Results as given in patent US20160176955A1 (LEIDOS, published 2016).

B1: peptide 10 (amino acids 91-106 of CSP) (peptide)
peptide: HKKLKQPADGNPDP
B2: monoclonal antibody (mAb) 5D5 (antibody, V domains shown)
VH: QVHLQQSGGEVARPGASVKLSCKASGYTFTGYGLSWVKQRTGQGLEWIGEIYPRSGNTYYNEKFKGKATLTADKSSSTAYMELRSLTSEDSAVYFCARSWGNSSFVYWGQGTLVTVSA
VL: SIVMTQTPKFLLVSAGDRVTITCKASQSVTNDVTWYQQKPGQSPKLLIYYASNRYTGVPDRFTGSGYGTDFTFTISTVQAEDLAVYFCQQDYSSPFTFGSGTKLEIKR
notes: Murine IgG1/kappa hybridoma antibody; also called 5D5 mAb; MRA-1242
B3: peptide 8 (amino acids 71-85 of CSP) (peptide)
peptide: SLGENDDGNNEDNEK

Assays:
[1] = target: B2; test: competitive ELISA, competitor against rCSP for binding to mAb 5D5; row 0.001 µg/ml
[2] = target: B2; test: competitive ELISA, competitor against rCSP for binding to mAb 5D5; row 0.01 µg/ml
[3] = target: B1; test: indirect ELISA, 15-mer peptide mapping
[4] = target: B3; test: indirect ELISA, 15-mer peptide mapping

| Binder | ELISA signal (name and unit not given) [1] | ELISA signal (name and unit not given) [2] | binding result [3] | binding result [4] |
| --- | --- | --- | --- | --- |
| EDNEKLRKPKHKKLK [peptide 9 (amino acids 81-95 of CSP)] | 0.19 | 0.246 |  |  |
| NEDNEKLRK [peptide B] | 1.03 | 3.51 |  |  |
| DGNNEDNEK [peptide A] | 1.05 | 3.57 |  |  |
| NEKLRKPKHK [peptide C] | 0.976 | 3.49 |  |  |
| B1 | 0.92 | 3.34 |  |  |
| LRKPKHKKLKQ [peptide D] | 0.989 | 3.45 |  |  |
| B2 |  |  | no binding | no binding |
| B3 | 0.952 | 3.35 |  |  |
| PKHKKLKQPAD [peptide E] | 0.925 | 3.39 |  |  |
